Earlier results as cited in paper PMC11724285.

Test system: NF-κB (subunit not stated)

In the case of “GAUACUUGAAACUGUAAGGUUGGCGUAUA [NF-κB RNA aptamer (29 nt)]”, the Kd is listed as 5 nM.
